Assay results reported in patent US9850292B2, “Compositions which regulate the epithelial brush border Na+/H+ exchanger NHE3 and their methods of use in gastrointestinal disease” (THE JOHNS HOPKINS UNIVERSITY, priority 2012, dated 2017).
Where two headings read alike, the source gives them in different places. The star is where a group is joined. Biotin = O=C1N[C@H]2[C@H](CS[C@H]2CCCCC(=O)*)N1

Tests used:
[1] = target: T1, NHE3 (Mus musculus, UniProt G3X939); experiment: NHE3 activity in mouse jejunum in vitro, BCECF/microscopy; assay type: cell-based; settings: FIG. 4B
T1 construct: from tissue; host or cells: mouse jejunum, exposed in vitro
Procedure: (§1) FIG. 4A is a bar graph depicting the results when Caco-2/HA-NHE3 cells were exposed to IRCX-CP (400 nM) for 15 minutes then basal, carbachol (cch) (10 μM) inhibited and EGF (200 ng/ml) stimulated NHE3 were determined (n=4). FIG. 4B is another bar graph depicting the effects when mouse jejunum was exposed in vitro to IRCX-CP (400 nM) and/or forskolin (10 μM) for 15 minutes with NHE3 activity determined by BCECF.
The fluorescent peptides described above were then loaded into PS120/NHERF2/NHE3, Caco2/NHE3 cells, and mouse small intestine. It was established that loading reaches a maximum in 15 minutes (37° C.) (FIG. 3) and is stable for at least 6 hours. To evaluate the effect of these peptides on NHE3 regulation, PS120 and Caco-2 cells were exposed to 400-1600 nM Bodipy 577/618-peptide and used BCECF/fluorometry to characterize the peptide's effects on basal NHE3 activity and after Ca^2+ elevation and EGF exposure. In studies in both cell types, all peptide concentrations studied stimulated basal NHE3 activity by about 40%, and reduced Ca^2+ inhibition of NHE3 by about 50% in PS 120 cells (data not shown) and entirely in Caco-2 cells (FIG. 4A).

[2] = target: T2, rabbit NHE3 (rNHE3) (Oryctolagus cuniculus, UniProt P26432); experiment: BCECF/fluorometry Na+/H+ exchange activity in Caco-2 cells; assay type: cell-based; set-up: expressed in transfected cells; host or cells: Caco-2BBe cells, transient adenoviral infection (ADLOX.HTM shuttle vector, CMV promoter)
Procedure: as §1
Cell Lines. PS120 fibroblasts lack all endogenous plasma membrane NHEs, NHERF1 (minimal expression), NHERF2, NHERF3 and NHERF4. These cells, when stably expressing rabbit NHE3 with a C-terminal VSV-G protein epitope tag and NHERF2, are called PS120/NHE3/NHERF2 cells (or PS120/E3V/NHERF2 cells), as described (stable cell lines made using pcDNA 3.1, G418 and hygromycin, Invitrogen). Caco-2BBe cells express all four members of the NHERF gene family and small amounts NHE3 (Caco-2BBe/3HA-NHE3 cells). Triple HA-tagged rabbit NHE3 was expressed by adenovirus into Caco-2BBe cells for transport and biochemical analysis.
Adenoviral Constructs/Infection. Caco-2BBe cells which endogenously express the four members of the NHERF gene family and small amounts of NHE3 were transiently infected with triple HA-tagged rNHE3 previously engineered into replication-deficient Adeno-viral shuttle vector ADLOX.HTM under a cytomegalovirus promoter. Caco-2BBe cells were first grown on Transwell filters (Corning) until 12 days post-confluence in “Caco-2 medium.” Cells were then treated with serum-free media containing 6 mM EGTA for 2 hours at 37° C. to allow the tight junctions to open, further exposing apical and basolateral surfaces to the virus. […]
Measurement of Na^+/H^+ Exchange. Cellular Na^+/H^+ exchange activity in PS 120 cells grown to about 70% confluency on glass coverslips was determined fluorometrically using the intracellular pH-sensitive dye 2′,7′-bis(carboxyethyl)5-6-carboxyfluoresceinacetoxymethyl ester (BCECF-AM, 5μM; Molecular Probes, Eugene, Oreg.). […] At the end of each experiment, the fluorescence ratio was calibrated to pHi using the high potassium/nigericin method. Na^+/H^+ exchange activity data were calculated as the product of Na^+ dependent changes in pHi times the buffering capacity at each pHi, and individual points shown in the figures are ratios of Na^+/H^+ exchange calculated at multiple pHi values using at least three coverslips per condition in a single experiment. Kinetics of Na^+/H^+ exchange were analyzed by Hill plot using Origin (Microcal Software) to estimate Vmax and K′(H^+)i in individual experiments. Means+/−S.E.M. were determined from at least three separate experiments. […]

[3] = tested on: murine jejunum exposed to cholera toxin; settings: mouse, in vivo
[4] = target: T2, rabbit NHE3 (rNHE3); assay type: cell-based; set-up: amplified from pcDNA 3.1 containing the full-length NHE3V (pcDNA 3.1/NHE3V); expressed in transfected cells

T2 sequence (P26432 30-832): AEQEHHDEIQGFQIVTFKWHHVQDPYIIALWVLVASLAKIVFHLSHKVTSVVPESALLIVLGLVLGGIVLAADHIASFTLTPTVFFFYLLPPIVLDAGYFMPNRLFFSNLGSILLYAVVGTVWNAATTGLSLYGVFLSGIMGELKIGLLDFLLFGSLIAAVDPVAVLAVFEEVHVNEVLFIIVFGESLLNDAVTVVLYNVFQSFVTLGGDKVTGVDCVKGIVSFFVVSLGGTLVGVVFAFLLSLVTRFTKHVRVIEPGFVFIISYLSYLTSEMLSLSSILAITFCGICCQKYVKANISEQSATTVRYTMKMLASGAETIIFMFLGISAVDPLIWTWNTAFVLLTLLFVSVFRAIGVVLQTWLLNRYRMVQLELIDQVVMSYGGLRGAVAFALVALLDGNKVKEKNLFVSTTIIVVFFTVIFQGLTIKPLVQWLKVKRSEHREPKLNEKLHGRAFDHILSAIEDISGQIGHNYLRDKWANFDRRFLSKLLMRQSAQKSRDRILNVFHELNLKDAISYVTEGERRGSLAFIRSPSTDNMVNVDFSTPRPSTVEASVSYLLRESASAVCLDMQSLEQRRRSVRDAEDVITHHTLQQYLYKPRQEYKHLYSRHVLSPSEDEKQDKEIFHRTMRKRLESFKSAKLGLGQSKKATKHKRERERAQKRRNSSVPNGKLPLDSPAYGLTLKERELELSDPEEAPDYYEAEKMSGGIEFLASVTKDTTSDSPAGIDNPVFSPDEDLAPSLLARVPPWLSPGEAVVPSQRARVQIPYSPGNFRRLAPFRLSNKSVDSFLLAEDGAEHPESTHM
T1 sequence (G3X939 27-829): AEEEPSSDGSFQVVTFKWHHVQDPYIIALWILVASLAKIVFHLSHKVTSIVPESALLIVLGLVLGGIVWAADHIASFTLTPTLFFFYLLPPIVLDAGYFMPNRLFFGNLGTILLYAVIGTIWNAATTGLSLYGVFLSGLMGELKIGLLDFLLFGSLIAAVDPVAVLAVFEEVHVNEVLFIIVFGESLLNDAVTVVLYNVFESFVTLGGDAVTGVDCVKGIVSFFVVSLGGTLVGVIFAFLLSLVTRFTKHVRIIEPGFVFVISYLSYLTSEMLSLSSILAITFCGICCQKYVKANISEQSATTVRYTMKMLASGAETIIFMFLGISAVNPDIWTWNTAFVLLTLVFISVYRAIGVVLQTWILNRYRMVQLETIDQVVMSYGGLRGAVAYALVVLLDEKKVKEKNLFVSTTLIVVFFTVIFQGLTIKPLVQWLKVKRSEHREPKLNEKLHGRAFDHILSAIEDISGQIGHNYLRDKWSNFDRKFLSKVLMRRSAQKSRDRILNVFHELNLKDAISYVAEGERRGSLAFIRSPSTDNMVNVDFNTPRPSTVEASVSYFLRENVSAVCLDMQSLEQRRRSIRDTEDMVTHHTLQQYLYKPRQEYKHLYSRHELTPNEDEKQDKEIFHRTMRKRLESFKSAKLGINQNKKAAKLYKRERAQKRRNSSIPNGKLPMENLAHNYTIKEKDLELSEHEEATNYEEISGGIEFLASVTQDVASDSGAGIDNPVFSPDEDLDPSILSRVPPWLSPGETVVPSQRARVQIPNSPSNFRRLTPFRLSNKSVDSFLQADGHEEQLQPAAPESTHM

Substance: Bodipy 577/618-peptide: 38 aa rabbit NHE3 aa 568-605 peptide (SEQ ID NO: 1), biotin on N-terminus, C-terminus linked to Bodipy 577/618 maleimide (Biotin-NVDFSTPRPSTVEASVSYLLRESASAVCLDMQSLEQRR-{Bodipy 577/618 maleimide}; listed as Oryctolagus cuniculus)
- stimulation of basal NHE3 activity ([1]; 400 nM, 15 minutes): 60%
- prevention of NHE3 inhibition by forskolin ([1]; forskolin 10 μM, 400 nM peptide): totally prevented
- stimulation of basal NHE3 activity ([2]; 400-1600 nM peptide, all concentrations studied): about 40%
- reduction of Ca2+ inhibition of NHE3 ([2]; after Ca2+ elevation (carbachol 10 μM), FIG. 4A): entirely
- peptide concentration at which effects were maximum ([2]; effect at saturation): 400 nM
- cholera toxin fluid accumulation [3]: prevented cholera toxin fluid accumulation
- peptide concentration at which effects were maximum [4]: 400 nM
- reduction of Ca2+ inhibition of NHE3 [4]: about 50%
- stimulation of basal NHE3 activity [4]: about 40%

Substance: NVDFSTPRPSTVEASVSYLLRESASAVCLDMQSLEQRR (listed as Oryctolagus cuniculus) [peptide without Bodipy]
- effect on NHE3 activity [2]: did not alter NHE3 activity
- effect on NHE3 activity [4]: did not alter NHE3 activity
